B1: QWPWQASLQF (SEQ ID NO: 37) (peptide)
peptide: QWPWQASLQF
B2: HYTYILEVF (SEQ ID NO: 13) (peptide)
peptide: HYTYILEVF
B3: RYMKKDYLI (SEQ ID NO: 5) (peptide)
peptide: RYMKKDYLI
B4: VWSNVTPLKF (SEQ ID NO: 2) (peptide)
peptide: VWSNVTPLKF
B5: MYPDLSELLM (SEQ ID NO: 24) (peptide)
peptide: MYPDLSELLM
B6: KYTNWKAFL (SEQ ID NO: 38) (peptide)
peptide: KYTNWKAFL
B7: TQPGDWTLF (SEQ ID NO: 22) (peptide)
peptide: TQPGDWTLF
B8: KYLEESVWL (SEQ ID NO: 35) (peptide)
peptide: KYLEESVWL
B9: MQPRMFFLF (SEQ ID NO: 34) (peptide)
peptide: MQPRMFFLF
B10: QYDPTPLTW (SEQ ID NO: 1) (peptide)
peptide: QYDPTPLTW
B11: KTPTNYYLF (SEQ ID NO: 26) (peptide)
peptide: KTPTNYYLF
B12: QYQNVLTLW (SEQ ID NO: 31) (peptide)
peptide: QYQNVLTLW
B13: KFIISDWRF (SEQ ID NO: 23) (peptide)
peptide: KFIISDWRF
B14: SLPDLTPTF (SEQ ID NO: 32) (peptide)
peptide: SLPDLTPTF
B15: EFTTVLYNF (SEQ ID NO: 20) (peptide)
peptide: EFTTVLYNF
B16: VYPLLSRLYW (SEQ ID NO: 29) (peptide)
peptide: VYPLLSRLYW
B17: VWSDVTPLNF (SEQ ID NO: 10) (peptide)
peptide: VWSDVTPLNF
B18: TLPNTIYRF (SEQ ID NO: 42) (peptide)
peptide: TLPNTIYRF
B19: YYSIISHTL (SEQ ID NO: 28) (peptide)
peptide: YYSIISHTL
B20: ETEQTKFWDY (SEQ ID NO: 406) (peptide)
peptide: ETEQTKFWDY
B21: QYLPGWTVLF (SEQ ID NO: 30) (peptide)
peptide: QYLPGWTVLF
B22: PFLPPAACFF (SEQ ID NO: 8) (peptide)
peptide: PFLPPAACFF
B23: YYSKSVGFMQW (SEQ ID NO: 11) (peptide)
peptide: YYSKSVGFMQW
B24: DYIGSVEKW (SEQ ID NO: 18) (peptide)
peptide: DYIGSVEKW
B25: SYEKVINYL (SEQ ID NO: 4) (peptide)
peptide: SYEKVINYL
B26: KYALLLQDL (SEQ ID NO: 15) (peptide)
peptide: KYALLLQDL
B27: KYALLLQEL (SEQ ID NO: 51) (peptide)
peptide: KYALLLQEL
B28: SYNGYVFYL (SEQ ID NO: 25) (peptide)
peptide: SYNGYVFYL
B29: KYKDYFPVI (SEQ ID NO: 6) (peptide)
peptide: KYKDYFPVI
B30: NYTLYPITF (SEQ ID NO: 27) (peptide)
peptide: NYTLYPITF

How the values were obtained:
[1] = target: T1, HLA-A*24 (human); test: UV peptide-exchange ELISA; ++++ = yield >75%
T1 construct: MHC monomer made peptide-receptive by UV cleavage of a UV-sensitive ligand; also called peptide-receptive MHC class I monomer
Source text: (§1) Candidate peptides for T cell based therapies according to the present invention were further tested for their MHC binding capacity (affinity). The individual peptide-MHC complexes were produced by UV-ligand exchange, where a UV-sensitive peptide is cleaved upon UV-irradiation, and exchanged with the peptide of interest as analyzed. Only peptide candidates that can effectively bind and stabilize the peptide-receptive MHC molecules prevent dissociation of the MHC complexes. To determine the yield of the exchange reaction, an ELISA was performed based on the detection of the light chain (β2m) of stabilized MHC complexes. The assay was performed as generally described in Rodenko et al. (Rodenko et al., 2006).
(§2) 96 well MAXISorp plates (NUNC) were coated over night with 2 ug/ml streptavidin in PBS at room temperature, washed 4× and blocked for 1 h at 37° C. in 2% BSA containing blocking buffer. […] Peptide-MHC monomers of the UV-exchange reaction were diluted 100-fold in blocking buffer. Samples were incubated for 1 h at 37° C., washed four times, incubated with 2 ug/ml HRP conjugated anti-β2m for 1h at 37° C., washed again and detected with TMB solution that is stopped with […]. Absorption was measured at 450 nm.

[2] = target: T2, HLA-A*01 (human); test: UV peptide-exchange ELISA; ++++ = yield >75%
T2 construct: MHC monomer made peptide-receptive by UV cleavage of a UV-sensitive ligand; also called peptide-receptive MHC class I monomer
Source text: as §1, §2

Binder | peptide exchange yield [1] [%] | peptide exchange yield [2] [%]
B1 | > 75 | 
B2 | > 75 | 
B3 | > 75 | 
B4 | > 75 | 
B5 | > 75 | 
B6 | > 75 | 
B7 | > 75 | 
B8 | > 75 | 
B9 | > 75 | 
B10 | > 75 | 
B11 | > 75 | 
B12 | > 75 | 
B13 | > 75 | 
B14 | > 75 | 
B15 | > 75 | 
B16 | > 75 | 
B17 | > 75 | 
B18 | > 75 | 
B19 | > 75 | 
B20 |  | > 75
B21 | > 75 | 
B22 | > 75 | 
B23 | > 75 | 
B24 | > 75 | 
B25 | > 75 | 
B26 | > 75 | 
B27 | > 75 | 
B28 | > 75 | 
B29 | > 75 | 
B30 | > 75 | 
